The target in assay [1] is complex of vitamin D binding protein with 25-hydroxyvitamin D3 (DBP:25(OH)D3) (human) (UniProt P02774). As to the kind of experiment: MST, NT-647-labelled DBP (50 nM) with VD3 (50 nM), megalin fragment titrated.
Assay [2] concerns the target vitamin D binding protein (DBP) alone, without added vitamin D metabolite (human) (UniProt P02774). As to the kind of experiment: MST, NT-647-labelled DBP (50 nM), megalin fragment titrated, absence of 25-OH vitamin D3; microscale thermophoresis; NT-647-labelled DBP, purified soluble M1 titrated 0.488-1000 nmol/L; absence of 25-OH vitamin D3.

pKd: −log10 of the molar value.

Sequence of complex of vitamin D binding protein with 25-hydroxyvitamin D3 (DBP:25(OH)D3) (human) (P02774 17-474 limits assumed, one chain of several): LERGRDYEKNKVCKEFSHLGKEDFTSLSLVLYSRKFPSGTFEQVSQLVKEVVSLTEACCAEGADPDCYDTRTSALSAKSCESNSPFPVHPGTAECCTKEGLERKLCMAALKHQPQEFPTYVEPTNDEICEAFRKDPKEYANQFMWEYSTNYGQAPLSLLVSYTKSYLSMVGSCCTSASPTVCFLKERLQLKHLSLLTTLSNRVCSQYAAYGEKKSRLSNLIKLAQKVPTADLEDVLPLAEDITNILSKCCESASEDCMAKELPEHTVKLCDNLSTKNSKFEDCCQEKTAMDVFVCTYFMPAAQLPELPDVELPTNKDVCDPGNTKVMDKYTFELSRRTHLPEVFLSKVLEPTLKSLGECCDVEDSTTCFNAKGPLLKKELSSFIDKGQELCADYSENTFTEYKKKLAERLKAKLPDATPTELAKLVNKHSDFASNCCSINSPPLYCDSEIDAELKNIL
Sequence of vitamin D binding protein (DBP) alone, without added vitamin D metabolite (human) (P02774 17-474 limits assumed): as the sequence (P02774 17-474 limits assumed, one chain of several) above

As for “soluble recombinant megalin M1 fragment (amino acids 26 to 386 of human LRP2/megalin, C-terminal 6x His tag) (from UniProt P98164 26-386) (receptor)”, the values for the pKd in assay [1] and in assay [2] were 7.34 and 6.35, respectively.
